Data from PMC10721106, “Structure of the siphophage neck–Tail complex suggests that conserved tail tip proteins facilitate receptor binding and tail assembly” (PLOS Biology, 2023).

B2: tail terminal protein gpU (natural protein, bacteriophage lambda, UniProt P03732 1-131, looked up)
chain: MKHTELRAAVLDALEKHDTGATFFDGRPAVFDEADFPAVAVYLTGAEYTGEELDSDTWQAELHIEVFLPAQVPDSELDAWMESRIYPVMSDIPALSDLITSMVASGYDYRRDDDAGLWSSADLTYVITYEM
notes: tail terminal protein gpU of bacteriophage lambda; all 131 residues modelled; O-loop 25-37, E-loop 45-58; also called tail terminator; source: lambda W60 phage grown on E. coli MG1655; virions purified (PEG 8000 precipitation, CsCl gradient)
B9: coat protein gpE (natural protein, bacteriophage lambda, UniProt P03713 1-341, looked up)
chain: MSMYTTAQLLAANEQKFKFDPLFLRLFFRESYPFTTEKVYLSQIPGLVNMALYVSPIVSGEVIRSRGGSTSEFTPGYVKPKHEVNPQMTLRRLPDEDPQNLADPAYRRRRIIMQNMRDEELAIAQVEEMQAVSAVLKGKYTMTGEAFDPVEVDMGRSEENNITQSGGTEWSKRDKSTYDPTDDIEAYALNASGVVNIIVFDPKGWALFRSFKAVKEKLDTRRGSNSELETAVKDLGKAVSYKGMYGDVAIVVYSGQYVENGVKKNFLPDNTMVLGNTQARGLRTYGCIQDADAQREGINASARYPKNWVTTGDPAREFTMIQSAPLMLLADPDEFVSVQLA
notes: major capsid (coat) protein gpE of bacteriophage lambda, as it stands in the mature virion; The introduction gives 415 copies in the head (cited); also called major capsid protein gpE; head protein gpE; source: lambda W60 phage grown on E. coli MG1655; virions purified (PEG 8000 precipitation, CsCl gradient)

Key:
[1] = molecular target: the molecule itself; assay: cryo-EM structure; purified lambda virions; local reconstruction of the tail tip complex with C3 symmetry (RELION), 3.44 Å
[2] = molecular target: the molecule itself; assay: cryo-EM structure; purified lambda virions; local reconstruction of the neck: gpFII, gpU and 2 proximal gpV rings, 3.5 Å
[3] = molecular target: T1, tail tube protein gpV (bacteriophage lambda), P03733; assay: cryo-EM structure; purified lambda virions; local reconstruction of the tail tube (RELION), 3.48 Å; details: remark: other sources report otherwise
T1 chain: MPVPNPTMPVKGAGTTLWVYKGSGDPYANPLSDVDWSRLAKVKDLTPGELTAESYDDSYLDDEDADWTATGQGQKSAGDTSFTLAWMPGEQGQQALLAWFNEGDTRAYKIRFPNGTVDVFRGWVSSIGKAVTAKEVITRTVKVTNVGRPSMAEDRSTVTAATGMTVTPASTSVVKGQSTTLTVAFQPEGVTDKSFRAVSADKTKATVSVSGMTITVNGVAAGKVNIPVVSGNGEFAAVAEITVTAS

coat protein gpE = molecular target: B9; assay: cryo-EM structure; purified lambda virions; icosahedral reconstruction of the head, 3.5 Å; details: both partners purified
[4] = molecular target: T2, cementing protein gpD (bacteriophage lambda), P03712; assay: as above; details: remark: other sources report otherwise
T2 chain: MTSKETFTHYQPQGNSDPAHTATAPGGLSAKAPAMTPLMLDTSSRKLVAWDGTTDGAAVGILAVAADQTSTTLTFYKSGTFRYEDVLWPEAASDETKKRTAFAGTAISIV

[5] = molecular target: B2; assay: cryo-EM structure; purified lambda virions; local reconstruction of the neck: gpFII, gpU and 2 proximal gpV rings, 3.5 Å; details: both partners purified
[6] = molecular target: the molecule itself; assay: cryo-EM structure; purified lambda virions; local reconstruction of the gpB (portal) and gpW (adaptor) rings with 12-fold symmetry, 3.2 Å
[7] = molecular target: the molecule itself; assay: cryo-EM structure; purified lambda virions; icosahedral reconstruction of the head, 3.5 Å

B1: tape measure protein gpH (natural protein, bacteriophage lambda, UniProt P03736 1-853, looked up)
chain: MAEPVGDLVVDLSLDAARFDEQMARVRRHFSGTESDAKKTAAVVEQSLSRQALAAQKAGISVGQYKAAMRMLPAQFTDVATQLAGGQSPWLILLQQGGQVKDSFGGMIPMFRGLAGAITLPMVGATSLAVATGALAYAWYQGNSTLSDFNKTLVLSGNQAGLTADRMLVLSRAGQAAGLTFNQTSESLSALVKAGVSGEAQIASISQSVARFSSASGVEVDKVAEAFGKLTTDPTSGLTAMARQFHNVSAEQIAYVAQLQRSGDEAGALQAANEAATKGFDDQTRRLKENMGTLETWADRTARAFKSMWDAVLDIGRPDTAQEMLIKAEAAYKKADDIWNLRKDDYFVNDEARARYWDDREKARLALEAARKKAEQQTQQDKNAQQQSDTEASRLKYTEEAQKAYERLQTPLEKYTARQEELNKALKDGKILQADYNTLMAAAKKDYEATLKKPKQSSVKVSAGDRQEDSAHAALLTLQAELRTLEKHAGANEKISQQRRDLWKAESQFAVLEEAAQRRQLSAQEKSLLAHKDETLEYKRQLAALGDKVTYQERLNALAQQADKFAQQQRAKRAAIDAKSRGLTDRQAEREATEQRLKEQYGDNPLALNNVMSEQKKTWAAEDQLRGNWMAGLKSGWSEWEESATDSMSQVKSAATQTFDGIAQNMAAMLTGSEQNWRSFTRSVLSMMTEILLKQAMVGIVGSIGSAIGGAVGGGASASGGTAIQAAAAKFHFATGGFTGTGGKYEPAGIVHRGEFVFTKEATSRIGVGNLYRLMRGYATGGYVGTPGSMADSRSQASGTFEQNNHVVINNDGTNGQIGPAALKAVYDMARKGARDEIQTQMRDGGLFSGGGR
notes: tape measure protein gpH of bacteriophage lambda in the virion; only a C-terminal α-helix modelled (residues 818-842 in the results, 818-849 in the methods); source: lambda W60 phage grown on E. coli MG1655; virions purified (PEG 8000 precipitation, CsCl gradient)
[1]
  stoichiometry N: 3

## B2
[2]
  stoichiometry N: 6

B3: insertion protein gpI (natural protein, bacteriophage lambda, UniProt P03730 1-223, looked up)
chain: MAATHTLPLASPGMARICLYGDLQRFGRRIDLRVKTGAEAIRALATQLPAFRQKLSDGWYQVRIAGRDVSTSGLTAQLHETLPDGAVIHIVPRVAGAKSGGVFQIVLGAAAIAGSFFTAGATLAAWGAAIGAGGMTGILFSLGASMVLGGVAQMLAPKARTPRIQTTDNGKQNTYFSSLDNMVAQGNVLPVLYGEMRVGSRVVSQEISTADEGDGGQVVVIGR
notes: insertion protein gpI of bacteriophage lambda in the virion; source: lambda W60 phage grown on E. coli MG1655; virions purified (PEG 8000 precipitation, CsCl gradient)
[1]
  stoichiometry N: 3

B4: tail tube protein gpV, P03733 1-246 (natural protein)
chain: MPVPNPTMPVKGAGTTLWVYKGSGDPYANPLSDVDWSRLAKVKDLTPGELTAESYDDSYLDDEDADWTATGQGQKSAGDTSFTLAWMPGEQGQQALLAWFNEGDTRAYKIRFPNGTVDVFRGWVSSIGKAVTAKEVITRTVKVTNVGRPSMAEDRSTVTAATGMTVTPASTSVVKGQSTTLTVAFQPEGVTDKSFRAVSADKTKATVSVSGMTITVNGVAAGKVNIPVVSGNGEFAAVAEITVTAS
[3]
  stoichiometry N: 6

B5: cementing protein gpD (natural protein)
chain: MTSKETFTHYQPQGNSDPAHTATAPGGLSAKAPAMTPLMLDTSSRKLVAWDGTTDGAAVGILAVAADQTSTTLTFYKSGTFRYEDVLWPEAASDETKKRTAFAGTAISIV
notes: cementing (decoration) protein gpD of bacteriophage lambda, trimers on the capsid shell of the mature virion; also called head protein gpD; source: lambda W60 phage grown on E. coli MG1655; virions purified (PEG 8000 precipitation, CsCl gradient)
Coat protein gpE
  binding result: binds
[4]
  stoichiometry N: 3

B6: stopper protein gpFII (natural protein, bacteriophage lambda)
chain: MADFDNLFDAAIARADETIRGYMGTSATITSGEQSGAVIRGVFDDPENISYAGQGVRVEGSSPSLFVRTDEVRQLRRGDTLTIGEENFWVDRVSPDDGGSCHLWLGRGVPPAVNRRR
notes: stopper protein gpFII of bacteriophage lambda, 117-residue protein, residues 4-117 resolved; domains: N-terminal α-helix 4-24, β-sandwich 25-41 and 63-107, β-hairpin 46-62, C-terminal loop 108-117; also called neck protein gpFII; source: lambda W60 phage grown on E. coli MG1655; virions purified (PEG 8000 precipitation, CsCl gradient)
[5]
  binding result: binds
[2]
  stoichiometry N: 6

B7: portal protein gpB (natural protein, bacteriophage lambda, UniProt P03710 23-533, looked up)
chain: GYHGGGSGFGGQLRSWNPPSESVDAALLPNFTRGNARADDLVRNNGYAANAIQLHQDHIVGSFFRLSHRPSWRYLGIGEEEARAFSREVEAAWKEFAEDDCCCIDVERKRTFTMMIREGVAMHAFNGELFVQATWDTSSSRLFRTQFRMVSPKRISNPNNTGDSRNCRAGVQINDSGAALGYYVSEDGYPGWMPQKWTWIPRELPGGRASFIHVFEPVEDGQTRGANVFYSVMEQMKMLDTLQNTQLQSAIVKAMYAATIESELDTQSAMDFILGANSQEQRERLTGWIGEIAAYYAAAPVRLGGAKVPHLMPGDSLNLQTAQDTDNGYSVFEQSLLRYIAAGLGVSYEQLSRNYAQMSYSTARASANESWAYFMGRRKFVASRQASQMFLCWLEEAIVRRVVTLPSKARFSFQEARSAWGNCDWIGSGRMAIDGLKEVQEAVMLIEAGLSTYEKECAKRGDDYQEIFAQQVRETMERRAAGLKPPAWAAAAFESGLRQSTEEEKSDSRAA
notes: portal protein gpB of bacteriophage lambda in the mature virion; modelled without 23 N-terminal residues, 20 C-terminal residues and the loop 303-319; domains: wing 24-249 and 368-452, stem 250-279 and 343-367, clip 280-342, crown 453-511; source: lambda W60 phage grown on E. coli MG1655; virions purified (PEG 8000 precipitation, CsCl gradient); copies: 12
[6]
  stoichiometry N: 12

B8: central fiber protein gpJ (natural protein, bacteriophage lambda, UniProt P03749 1-1132, looked up)
chain: MGKGSSKGHTPREAKDNLKSTQLLSVIDAISEGPIEGPVDGLKSVLLNSTPVLDTEGNTNISGVTVVFRAGEQEQTPPEGFESSGSETVLGTEVKYDTPITRTITSANIDRLRFTFGVQALVETTSKGDRNPSEVRLLVQIQRNGGWVTEKDITIKGKTTSQYLASVVMGNLPPRPFNIRMRRMTPDSTTDQLQNKTLWSSYTEIIDVKQCYPNTALVGVQVDSEQFGSQQVSRNYHLRGRILQVPSNYNPQTRQYSGIWDGTFKPAYSNNMAWCLWDMLTHPRYGMGKRLGAADVDKWALYVIGQYCDQSVPDGFGGTEPRITCNAYLTTQRKAWDVLSDFCSAMRCMPVWNGQTLTFVQDRPSDKTWTYNRSNVVMPDDGAPFRYSFSALKDRHNAVEVNWIDPNNGWETATELVEDTQAIARYGRNVTKMDAFGCTSRGQAHRAGLWLIKTELLETQTVDFSVGAEGLRHVPGDVIEICDDDYAGISTGGRVLAVNSQTRTLTLDREITLPSSGTALISLVDGSGNPVSVEVQSVTDGVKVKVSRVPDGVAEYSVWELKLPTLRQRLFRCVSIRENDDGTYAITAVQHVPEKEAIVDNGAHFDGEQSGTVNGVTPPAVQHLTAEVTADSGEYQVLARWDTPKVVKGVSFLLRLTVTADDGSERLVSTARTTETTYRFTQLALGNYRLTVRAVNAWGQQGDPASVSFRIAAPAAPSRIELTPGYFQITATPHLAVYDPTVQFEFWFSEKQIADIRQVETSTRYLGTALYWIAASINIKPGHDYYFYIRSVNTVGKSAFVEAVGRASDDAEGYLDFFKGKITESHLGKELLEKVELTEDNASRLEEFSKEWKDASDKWNAMWAVKIEQTKDGKHYVAGIGLSMEDTEEGKLSQFLVAANRIAFIDPANGNETPMFVAQGNQIFMNDVFLKRLTAPTITSGGNPPAFSLTPDGKLTAKNADISGSVNANSGTLSNVTIAENCTINGTLRAEKIVGDIVKAASAAFPRQRESSVDWPSGTRTVTVTDDHPFDRQIVVLPLTFRGSKRTVSGRTTYSMCYLKVLMNGAVIYDGAANEAVQVFSRIVDMPAGRGNVILTFTLTSTRHSADIPPYTFASDVQVMVIKKQALGISVV
notes: central fiber protein gpJ of bacteriophage lambda in the virion; domains HDII, HDII-insertion (with FNIII-A, residues 72-215), HDIII, HDIV (with a β-sandwich, residues 483-569), linker, FNIII-1, FNIII-2, three-helix bundle; source: lambda W60 phage grown on E. coli MG1655; virions purified (PEG 8000 precipitation, CsCl gradient)
[1]
  stoichiometry N: 3

## B9
[7]
  binding result: binds

B10: adaptor protein gpW (natural protein, bacteriophage lambda)
chain: MTRQEELAAARAALHDLMTGKRVATVQKDGRRVEFTATSVSDLKKYIAELEVQTGMTQRRRGPAGFYV
notes: adaptor protein gpW of bacteriophage lambda, 68-residue protein, residues 4-68 resolved; domains: β-hairpin 23-36, two-α-helix bundle 4-22 and 37-54, C-arm 55-68; also called neck protein gpW; source: lambda W60 phage grown on E. coli MG1655; virions purified (PEG 8000 precipitation, CsCl gradient); copies: 12
[6]
  stoichiometry N: 12

B11: distal tail protein gpM (natural protein, bacteriophage lambda, UniProt P03737 1-109, looked up)
chain: MKTFRWKVKPGMDVASVPSVRKVRFGDGYSQRAPAGLNANLKTYSVTLSVPREEATVLESFLEEHGGWKSFLWTPPYEWRQIKVTCAKWSSRVSMLRVEFSAEFEQVVN
notes: distal tail protein gpM of bacteriophage lambda; all 109 residues resolved; two conformers that differ in the E-loop; source: lambda W60 phage grown on E. coli MG1655; virions purified (PEG 8000 precipitation, CsCl gradient)
[1]
  stoichiometry N: 6
